PMC4938799, “LD Motif Recognition by Talin: Structure of the Talin-DLC1 Complex” (Structure(London, England:1993), 2016)

Molecular target: T1, talin R8 domain
T1 construct: talin rod domain R8 (four-helix bundle), isolated domain used 15N-labelled for NMR; Construct limits, host and species are probably in the Supplemental Experimental Procedures; also called [15N]talin R8 domain
Assay: NMR titration; KD fitted from 1H,15N-HSQC chemical-shift changes; 0.1 mM 15N talin R8, peptide/protein ratios 0.1 to 8; 298 K, 20 mM sodium phosphate pH 6.5, 50 mM NaCl
Details: both partners purified

| Binder | Kd |
| --- | --- |
| ENEDIFPELDDILYHVKGMQRIVNQWSEK (Paper numbering is the 1091-residue isoform; +437 gives canonical numbering.) [DLC1(461–489) peptide] | 48 µM |
| MDDLDALLADLESTTS [paxillin LD1 peptide] | 168 µM |
